Assay results as given in PMC7189476.

Target: human PCNA, purified (human), P12004
Test: SPR; Bio-Rad XPR 36; human PCNA (~350 RU) immobilised on GLC chip by amine coupling; subunits injected at 125 to 2000 nM; 25 mM HEPES pH 7.5, 10% glycerol, 200 mM sodium acetate pH 7.8, 8 mM magnesium acetate, 1 mM DTT, 0.005% Tween-20, 0.2 mg/ml BSA; 20°C; 1:1 (Langmuir) model
Conditions: remark: other sources report otherwise

Sequence of human PCNA, purified (human), P12004 (P12004 whole entry): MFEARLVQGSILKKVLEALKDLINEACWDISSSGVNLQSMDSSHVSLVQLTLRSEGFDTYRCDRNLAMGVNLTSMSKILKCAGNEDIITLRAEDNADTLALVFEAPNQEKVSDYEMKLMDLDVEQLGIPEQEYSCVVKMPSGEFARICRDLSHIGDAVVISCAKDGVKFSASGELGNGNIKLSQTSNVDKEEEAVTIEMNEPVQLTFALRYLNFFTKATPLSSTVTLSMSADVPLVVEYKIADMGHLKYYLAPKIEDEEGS

B1: p125, purified, P28340 1-1107 (natural protein)
chain: MDGKRRPGPGPGVPPKRARGGLWDDDDAPRPSQFEEDLALMEEMEAEHRLQEQEEEELQSVLEGVADGQVPPSAIDPRWLRPTPPALDPQTEPLIFQQLEIDHYVGPAQPVPGGPPPSRGSVPVLRAFGVTDEGFSVCCHIHGFAPYFYTPAPPGFGPEHMGDLQRELNLAISRDSRGGRELTGPAVLAVELCSRESMFGYHGHGPSPFLRITVALPRLVAPARRLLEQGIRVAGLGTPSFAPYEANVDFEIRFMVDTDIVGCNWLELPAGKYALRLKEKATQCQLEADVLWSDVVSHPPEGPWQRIAPLRVLSFDIECAGRKGIFPEPERDPVIQICSLGLRWGEPEPFLRLALTLRPCAPILGAKVQSYEKEEDLLQAWSTFIRIMDPDVITGYNIQNFDLPYLISRAQTLKVQTFPFLGRVAGLCSNIRDSSFQSKQTGRRDTKVVSMVGRVQMDMLQVLLREYKLRSYTLNAVSFHFLGEQKEDVQHSIITDLQNGNDQTRRRLAVYCLKDAYLPLRLLERLMVLVNAVEMARVTGVPLSYLLSRGQQVKVVSQLLRQAMHEGLLMPVVKSEGGEDYTGATVIEPLKGYYDVPIATLDFSSLYPSIMMAHNLCYTTLLRPGTAQKLGLTEDQFIRTPTGDEFVKTSVRKGLLPQILENLLSARKRAKAELAKETDPLRRQVLDGRQLALKVSANSVYGFTGAQVGKLPCLEISQSVTGFGRQMIEKTKQLVESKYTVENGYSTSAKVVYGDTDSVMCRFGVSSVAEAMALGREAADWVSGHFPSPIRLEFEKVYFPYLLISKKRYAGLLFSSRPDAHDRMDCKGLEAVRRDNCPLVANLVTASLRRLLIDRDPEGAVAHAQDVISDLLCNRIDISQLVITKELTRAASDYAGKQAHVELAERMRKRDPGSAPSLGDRVPYVIISAAKGVAAYMKSEDPLFVLEHSLPIDTQYYLEQQLAKPLLRIFEPILGEGRAEAVLLRGDHTRCKTVLTGKVGGLLAFAKRRNCCIGCRTVLSHQGAVCEFCQPRESELYQKEVSHLNALEERFSRLWTQCQRCQGSLHEDVICTSRDCPIFYMRKKVRKDLEDQEQLLRRFGPPGPEAW
  Kd: 114 nM
  koff: 0.0002 s⁻¹
  kon: 1750 M⁻¹ s⁻¹
  response units: 90 RU
